Measured values as given in the RNAGym collection of RNA variant scans (doi:10.1021/acssynbio.7b00057).

B1: Pistol ribozyme (parent)
chain: GGGUCGUUGUUCCAUAAUCGCGUGGAUAUGGCACGCAAGUUUCUACCGGGCACCGUAAAUGUCCGACUGGAGCCGUUCGGGCGGCUAUAAACAGACCUCAGGCCCGAAGCGUGGCGGCACCUGCCGCCGGUGGUAAAAAAGAUCGGAAGAGCACACGUCU

Variants of: B1
Experiment: aptazyme ON/OFF ratio, guanine; higher = stronger switching; co-transcriptional cleavage with and without guanine

Row | Variant | aptazyme ON/OFF ratio
1 | U8C G9A U10G U11A C12U C13A | 1.1
2 | U8C G9A U10G U11A C12U C13U | 1.17
3 | U8C G9A U10C U11A C12U | 1.55
4 | U8C G9A U10C U11A C12A | 1.44
5 | U8C G9A U10C U11A C12G | 1.37
6 | U8C G9A U10C C13A | 1.06
7 | U8C G9A U10C C13G | 1.1
8 | U8C G9A U10C C13U | 1.66
9 | U8C G9A U10G U11C C13A | 1.11
10 | U8C G9A U10G U11C C13G | 1.07
11 | U8C G9A U10G U11C C13U | 1.06
12 | U8C G9A U10C U11A C13G | 1.15
13 | U8C G9A U10C U11A C13U | 1.3
14 | U8C G9A U10C U11A C13A | 1.2
15 | U8A U11A C12A C13G | 1.16
16 | U8A U11A C12A C13A | 1.15
17 | U8A U11A C12A C13U | 1.25
18 | U8C G9A C12U C13A | 1.17
19 | U8C G9A C12U C13G | 1.19
20 | U8C G9A C12U C13U | 1.25
21 | U8C G9A U10G U11C C12A C13A | 1.15

Row | Variant | aptazyme ON/OFF ratio
22 | U8C G9A U10G U11C C12A C13U | 1.22
23 | U8C G9A U10G U11C C12A C13G | 1.1
24 | U8A U11G C12A C13A | 1.15
25 | U8A U11G C12A C13G | 1.17
26 | U8A U11G C12A C13U | 1.2
27 | U8C G9A U10A U11G C12U C13A | 1.18
28 | U8C G9A U10A U11G C12U C13U | 1.23
29 | U8C G9A U10A U11G C12U C13G | 1.18
30 | U8C G9A U10A U11A | 1.47
31 | U8C G9A U10A U11C | 1.05
32 | U8C G9A U10A U11G | 1.45
33 | U8C G9A U11G C12U C13A | 1.34
34 | U8C G9A U11G C12U C13G | 1.29
35 | U8C G9A U11G C12U C13U | 1.22
36 | U8C G9A U10C U11A | 3.76
37 | U8C G9A U10C U11G | 1.19
38 | U8C G9A U10C U11C | 1.25
39 | U8A U11A | 1.14
40 | U8A U11C | 1.12
41 | U8A U11G | 1.25
42 | U8C C12G C13U | 1.31

Row | Variant | aptazyme ON/OFF ratio
43 | U8C C12G C13G | 1.15
44 | U8C C12G C13A | 1.19
45 | U8C G9A U10A U11A C12U | 1.35
46 | U8C G9A U10A U11A C12A | 1.3
47 | U8C G9A U10A U11A C12G | 1.32
48 | U8C G9C C12A C13U | 1.1
49 | U8C G9C C12A C13A | 1.08
50 | U8C G9C C12A C13G | 1.1
51 | U8C G9A U10C U11G C12A C13U | 1.4
52 | U8C G9A U10C U11G C12A C13G | 1.27
53 | U8C G9A U10C U11G C12A C13A | 1.44
54 | U8A U10G U11G C12G C13U | 1.32
55 | U8C G9A U11G C12A C13G | 1.29
56 | U8C G9A U11G C12A C13A | 1.22
57 | U8C G9A U11G C12A C13U | 1.27
58 | U8C G9A U10G U11G C12A C13A | 1.15
59 | U8C G9A U10G U11G C12A C13G | 1.14
60 | U8C G9A U10G U11G C12A C13U | 1.2
61 | U8C G9A U11C C12A C13A | 1.15
62 | U8C G9A U11C C12A C13G | 1.14
63 | U8C G9A U11C C12A C13U | 1.17

Row | Variant | aptazyme ON/OFF ratio
64 | U8C G9A U10C U11C C12U C13G | 1.03
65 | U8C G9A U10C U11C C12U C13A | 1.1
66 | U8C G9A U10C U11C C12U C13U | 1.09
67 | U8A U11G C12U C13U | 1.11
68 | U8A U11G C12U C13G | 1.1
69 | U8A U11G C12U C13A | 1.14
70 | U8A U11A C12G | 1.2
71 | U8A U11A C12U | 1.19
72 | U8A U11A C12A | 1.07
73 | U8C G9A C12A C13U | 1.17
74 | U8C G9A C12A C13A | 1.33
75 | U8C G9A C12A C13G | 1.14
76 | U8C G9A U11G | 1.45
77 | U8C G9A U11A | 1.25
78 | U8C G9A U11C | 1.09
79 | U8C G9A U10A U11A C12A C13U | 1.3
80 | U8C G9A U10A U11A C12A C13G | 1.15
81 | U8C G9A U10A U11A C12A C13A | 1.15
82 | U8C G9A U11G C13U | 1.15
83 | U8C G9A U11G C13A | 1.23
